Measured values reported in patent publication US20190085029.

System: T1, CDK5 inhibitory (CDK5i) peptide
T1 sequence: ARAFGIPVRCYS

Purified recombinant p25/CDK5 complex
CDK5 kinase activity (radiolabeled ATP and its substrate, H1): the CDK5i peptide significantly reduced CDK5 kinase activity compared to that from a scrambled peptide-treated group
